In assay [1] the target is HLA-C*05:01 (1-278) refolded with β2-microglobulin (1-99) and P2-IP (…). Kind of assay: SPR.
The target of assay [2] is HLA-C*05:01 (1-278) refolded with β2-microglobulin (1-99) and P2-AV (…). Kind of assay: SPR.
The target in assay [3] is HLA-C*05:01 (1-278) refolded with β2-microglobulin (1-99) and P2-AW (…). Kind of assay: SPR. (In general: SPR reads the build-up and loss of mass on a sensor chip optically.)
Assay [4] addresses HLA-C*16:02 on cells loaded with P9 with the Q8S substitution (…) (human | human (endogenous in 721.221)). Kind of assay: flow cytometry on cells. A general note: Flow cytometry measures light scatter and fluorescence of single cells or particles in a stream.
Assay [5] deals with HLA-C*08:02 on cells loaded with P2-MW with p6 Pro (human | human (endogenous in 721.221)). Kind of assay: flow cytometry on cells.
The target in assay [6] is HLA-C*08:02 on cells loaded with P2-MW with p6 Ile (human | human (endogenous in 721.221)). Kind of assay: flow cytometry on cells.
Assay [7] has as its target HLA-C*08:02 on cells loaded with P2-MW with p6 Leu (human | human (endogenous in 721.221)). Kind of assay: flow cytometry on cells.
In assay [8] the target is HLA-C*05:01 on cells loaded with P2-MW with p6 Asn (human | human (endogenous in 721.221)). Kind of assay: flow cytometry on cells.
Assay [9] concerns the target HLA-C*08:02 on cells loaded with P2-MW with p6 Val (human | human (endogenous in 721.221)). Kind of assay: flow cytometry on cells.
Assay [10] addresses HLA-C*08:02 on cells loaded with P2-MW with p6 Lys (human | human (endogenous in 721.221)). Kind of assay: flow cytometry on cells.

The record followed here is paper doi:10.1101/2023.02.06.527249.

For orientation: Kd means the concentration at which binding is half-saturated.

A value given as a limit tells only on which side of the number the result lay.

“2DL1 (1-224), recombinant, refolded (from UniProt P43626 22-245) (domain or fragment)”: the values for the Kd in assay [1], in assay [2] and in assay [3] were 0.44 µM, 1 µM and 1.1 µM, respectively.

Turning to “2DS1 (3-200), recombinant, refolded (domain or fragment)”, the figures for the Kd in [1], in assay [2] and in assay [3] were 2.3 µM, 2.6 µM and 1.9 µM, respectively.

In the case of “2DS4 (3-200), recombinant, refolded (domain or fragment)”, the Kd in assay [3] is 2 µM.

As for “KIR2DS1*001-Fc (from UniProt Q14954 22-245) (Fc fusion)”, the fold change of binding against unmodified P9 in assay [4] was 5 fold.

Take “KIR2DS4*001 KIR-Ig (KIR-Fc) fusion protein (from UniProt P43632 22-245) (Fc fusion)”: the percent of the binding with p6 Gly (P2-MW) is above 50% in assay [5]; above 50% in [6]; above 50% in [7]; above 25% in assay [8]; above 50% in assay [9]; above 50% in assay [10].
